Patent publication US20210388110A1 (published 2021)

B1: GCH065-G1dh/none-Hi-Kn010G3/L0201-k0 (antibody, human IgG1, kappa)
heavy: not shown
chain: EPKSSDKTHTCPPCPAPELLGGPSVFLFPPKPKDTLMISRTPEVTCVVVDVSHEDPEVKFNWYVDGVEVHNAKTKPREEQYNSTYRVVSVLTVLHQDWLNGKEYKCKVSNKALPAPIEKTISKAKGQPREPQVCTLPPSRDELTKNQVSLWCLVKGFYPSDIAVEWESNGQPENNYKTTPPVLDSDGSFFLYSKLTVDKSRWQQGNVFSCSVMHEALHNRYTQKSLSLSP
light: DIVMTQSPLSLPVTPGEPASISCRSSQPPVHSNRNTYLHWYQQKPGQAPRLLIYKVSNRFSGVPDRFSGSGSGTDFTLKISRVEAEDVGVYYCGQGTQVPYTFGQGTKLEIKRTVAAPSVFIFPPSDEQLKSGTASVVCLLNNFYPREAKVQWKVDNALQSGNSQESVTEQDSKDSTYSLSSTLTLSKADYEKHKVYACEVTHQGLSSPVTKSFNRGEC
notes: single-arm (one Fab)
B2: GCH065-G1dh/none-Hi-Kn010G3/L0272-k0 (antibody, human IgG1, kappa)
heavy: not shown
chain: EPKSSDKTHTCPPCPAPELLGGPSVFLFPPKPKDTLMISRTPEVTCVVVDVSHEDPEVKFNWYVDGVEVHNAKTKPREEQYNSTYRVVSVLTVLHQDWLNGKEYKCKVSNKALPAPIEKTISKAKGQPREPQVCTLPPSRDELTKNQVSLWCLVKGFYPSDIAVEWESNGQPENNYKTTPPVLDSDGSFFLYSKLTVDKSRWQQGNVFSCSVMHEALHNRYTQKSLSLSP
light: DIVMTQSPLSLPVTPGEPASISCRSSQPLVHSNRQTYLHWYQQKPGQAPRLLIYKVSNRFSGVPDRFSGSGSGTDFTLKISRVEAEDVGVYYCGQGTQVPYTFGQGTKLEIKRTVAAPSVFIFPPSDEQLKSGTASVVCLLNNFYPREAKVQWKVDNALQSGNSQESVTEQDSKDSTYSLSSTLTLSKADYEKHKVYACEVTHQGLSSPVTKSFNRGEC
notes: single-arm (one Fab)
B3: GCH094-G1dh/none-Hi-Kn010G3/L0272-k0 (antibody, human IgG1, kappa)
heavy: not shown
chain: EPKSSDKTHTCPPCPAPELLGGPSVFLFPPKPKDTLMISRTPEVTCVVVDVSHEDPEVKFNWYVDGVEVHNAKTKPREEQYNSTYRVVSVLTVLHQDWLNGKEYKCKVSNKALPAPIEKTISKAKGQPREPQVCTLPPSRDELTKNQVSLWCLVKGFYPSDIAVEWESNGQPENNYKTTPPVLDSDGSFFLYSKLTVDKSRWQQGNVFSCSVMHEALHNRYTQKSLSLSP
light: DIVMTQSPLSLPVTPGEPASISCRSSQPLVHSNRQTYLHWYQQKPGQAPRLLIYKVSNRFSGVPDRFSGSGSGTDFTLKISRVEAEDVGVYYCGQGTQVPYTFGQGTKLEIKRTVAAPSVFIFPPSDEQLKSGTASVVCLLNNFYPREAKVQWKVDNALQSGNSQESVTEQDSKDSTYSLSSTLTLSKADYEKHKVYACEVTHQGLSSPVTKSFNRGEC
notes: single-arm (one Fab)
B4: GCH094-G1dh/none-Hi-Kn010G3/L0246-k0 (antibody, human IgG1, kappa)
heavy: not shown
chain: EPKSSDKTHTCPPCPAPELLGGPSVFLFPPKPKDTLMISRTPEVTCVVVDVSHEDPEVKFNWYVDGVEVHNAKTKPREEQYNSTYRVVSVLTVLHQDWLNGKEYKCKVSNKALPAPIEKTISKAKGQPREPQVCTLPPSRDELTKNQVSLWCLVKGFYPSDIAVEWESNGQPENNYKTTPPVLDSDGSFFLYSKLTVDKSRWQQGNVFSCSVMHEALHNRYTQKSLSLSP
light: DIVMTQSPLSLPVTPGEPASISCRSSQSPVHSNRNTYIQWYQQKPGQAPRLLIYKVSNRFSGVPDRFSGSGSGTDFTLKISRVEAEDVGVYYCSQGTQVPYTFGQGTKLEIKRTVAAPSVFIFPPSDEQLKSGTASVVCLLNNFYPREAKVQWKVDNALQSGNSQESVTEQDSKDSTYSLSSTLTLSKADYEKHKVYACEVTHQGLSSPVTKSFNRGEC
notes: single-arm (one Fab)
B5: GCH073-G1dh/none-Hi-Kn010G3/L0201-k0 (antibody, human IgG1, kappa)
heavy: not shown
chain: EPKSSDKTHTCPPCPAPELLGGPSVFLFPPKPKDTLMISRTPEVTCVVVDVSHEDPEVKFNWYVDGVEVHNAKTKPREEQYNSTYRVVSVLTVLHQDWLNGKEYKCKVSNKALPAPIEKTISKAKGQPREPQVCTLPPSRDELTKNQVSLWCLVKGFYPSDIAVEWESNGQPENNYKTTPPVLDSDGSFFLYSKLTVDKSRWQQGNVFSCSVMHEALHNRYTQKSLSLSP
light: DIVMTQSPLSLPVTPGEPASISCRSSQPPVHSNRNTYLHWYQQKPGQAPRLLIYKVSNRFSGVPDRFSGSGSGTDFTLKISRVEAEDVGVYYCGQGTQVPYTFGQGTKLEIKRTVAAPSVFIFPPSDEQLKSGTASVVCLLNNFYPREAKVQWKVDNALQSGNSQESVTEQDSKDSTYSLSSTLTLSKADYEKHKVYACEVTHQGLSSPVTKSFNRGEC
notes: single-arm (one Fab)
B6: GCH073-G1dh/none-Hi-Kn010G3/L0011-k0 (antibody, human IgG1, kappa)
heavy: not shown
chain: EPKSSDKTHTCPPCPAPELLGGPSVFLFPPKPKDTLMISRTPEVTCVVVDVSHEDPEVKFNWYVDGVEVHNAKTKPREEQYNSTYRVVSVLTVLHQDWLNGKEYKCKVSNKALPAPIEKTISKAKGQPREPQVCTLPPSRDELTKNQVSLWCLVKGFYPSDIAVEWESNGQPENNYKTTPPVLDSDGSFFLYSKLTVDKSRWQQGNVFSCSVMHEALHNRYTQKSLSLSP
light: DIVMTQSPLSLPVTPGEPASISCRSSQPLVHSNRNTYLHWYQQKPGQAPRLLIYKVSNRFSGVPDRFSGSGSGTDFTLKISRVEAEDVGVYYCGQGTQVPYTFGQGTKLEIKRTVAAPSVFIFPPSDEQLKSGTASVVCLLNNFYPREAKVQWKVDNALQSGNSQESVTEQDSKDSTYSLSSTLTLSKADYEKHKVYACEVTHQGLSSPVTKSFNRGEC
notes: single-arm (one Fab)
B7: GCH094-G1dh/none-Hi-Kn010G3/L0011-k0 (antibody, human IgG1, kappa)
heavy: not shown
chain: EPKSSDKTHTCPPCPAPELLGGPSVFLFPPKPKDTLMISRTPEVTCVVVDVSHEDPEVKFNWYVDGVEVHNAKTKPREEQYNSTYRVVSVLTVLHQDWLNGKEYKCKVSNKALPAPIEKTISKAKGQPREPQVCTLPPSRDELTKNQVSLWCLVKGFYPSDIAVEWESNGQPENNYKTTPPVLDSDGSFFLYSKLTVDKSRWQQGNVFSCSVMHEALHNRYTQKSLSLSP
light: DIVMTQSPLSLPVTPGEPASISCRSSQPLVHSNRNTYLHWYQQKPGQAPRLLIYKVSNRFSGVPDRFSGSGSGTDFTLKISRVEAEDVGVYYCGQGTQVPYTFGQGTKLEIKRTVAAPSVFIFPPSDEQLKSGTASVVCLLNNFYPREAKVQWKVDNALQSGNSQESVTEQDSKDSTYSLSSTLTLSKADYEKHKVYACEVTHQGLSSPVTKSFNRGEC
notes: single-arm (one Fab)
B8: GCH094-G1dh/none-Hi-Kn010G3/L0201-k0 (antibody, human IgG1, kappa)
heavy: not shown
chain: EPKSSDKTHTCPPCPAPELLGGPSVFLFPPKPKDTLMISRTPEVTCVVVDVSHEDPEVKFNWYVDGVEVHNAKTKPREEQYNSTYRVVSVLTVLHQDWLNGKEYKCKVSNKALPAPIEKTISKAKGQPREPQVCTLPPSRDELTKNQVSLWCLVKGFYPSDIAVEWESNGQPENNYKTTPPVLDSDGSFFLYSKLTVDKSRWQQGNVFSCSVMHEALHNRYTQKSLSLSP
light: DIVMTQSPLSLPVTPGEPASISCRSSQPPVHSNRNTYLHWYQQKPGQAPRLLIYKVSNRFSGVPDRFSGSGSGTDFTLKISRVEAEDVGVYYCGQGTQVPYTFGQGTKLEIKRTVAAPSVFIFPPSDEQLKSGTASVVCLLNNFYPREAKVQWKVDNALQSGNSQESVTEQDSKDSTYSLSSTLTLSKADYEKHKVYACEVTHQGLSSPVTKSFNRGEC
notes: single-arm (one Fab)
B9: GCH073-G1dh/none-Hi-Kn010G3/L0000-k0 (antibody, human IgG1, kappa)
heavy: not shown
chain: EPKSSDKTHTCPPCPAPELLGGPSVFLFPPKPKDTLMISRTPEVTCVVVDVSHEDPEVKFNWYVDGVEVHNAKTKPREEQYNSTYRVVSVLTVLHQDWLNGKEYKCKVSNKALPAPIEKTISKAKGQPREPQVCTLPPSRDELTKNQVSLWCLVKGFYPSDIAVEWESNGQPENNYKTTPPVLDSDGSFFLYSKLTVDKSRWQQGNVFSCSVMHEALHNRYTQKSLSLSP
light: DIVMTQSPLSLPVTPGEPASISCRSSQSLVHSNRNTYLHWYQQKPGQAPRLLIYKVSNRFSGVPDRFSGSGSGTDFTLKISRVEAEDVGVYYCGQGTQVPYTFGQGTKLEIKRTVAAPSVFIFPPSDEQLKSGTASVVCLLNNFYPREAKVQWKVDNALQSGNSQESVTEQDSKDSTYSLSSTLTLSKADYEKHKVYACEVTHQGLSSPVTKSFNRGEC
notes: single-arm (one Fab)
B10: GCH094-G1dh/none-Hi-Kn010G3/L0271-k0 (antibody, human IgG1, kappa)
heavy: not shown
chain: EPKSSDKTHTCPPCPAPELLGGPSVFLFPPKPKDTLMISRTPEVTCVVVDVSHEDPEVKFNWYVDGVEVHNAKTKPREEQYNSTYRVVSVLTVLHQDWLNGKEYKCKVSNKALPAPIEKTISKAKGQPREPQVCTLPPSRDELTKNQVSLWCLVKGFYPSDIAVEWESNGQPENNYKTTPPVLDSDGSFFLYSKLTVDKSRWQQGNVFSCSVMHEALHNRYTQKSLSLSP
light: DIVMTQSPLSLPVTPGEPASISCRSSQPPVHSNRQTYLHWYQQKPGQAPRLLIYKVSNRFSGVPDRFSGSGSGTDFTLKISRVEAEDVGVYYCGQGTQVPYTFGQGTKLEIKRTVAAPSVFIFPPSDEQLKSGTASVVCLLNNFYPREAKVQWKVDNALQSGNSQESVTEQDSKDSTYSLSSTLTLSKADYEKHKVYACEVTHQGLSSPVTKSFNRGEC
notes: single-arm (one Fab)
B11: GCH066-G1dh/none-Hi-Kn010G3/L0000-k0 (antibody, human IgG1, kappa)
heavy: not shown
chain: EPKSSDKTHTCPPCPAPELLGGPSVFLFPPKPKDTLMISRTPEVTCVVVDVSHEDPEVKFNWYVDGVEVHNAKTKPREEQYNSTYRVVSVLTVLHQDWLNGKEYKCKVSNKALPAPIEKTISKAKGQPREPQVCTLPPSRDELTKNQVSLWCLVKGFYPSDIAVEWESNGQPENNYKTTPPVLDSDGSFFLYSKLTVDKSRWQQGNVFSCSVMHEALHNRYTQKSLSLSP
light: DIVMTQSPLSLPVTPGEPASISCRSSQSLVHSNRNTYLHWYQQKPGQAPRLLIYKVSNRFSGVPDRFSGSGSGTDFTLKISRVEAEDVGVYYCGQGTQVPYTFGQGTKLEIKRTVAAPSVFIFPPSDEQLKSGTASVVCLLNNFYPREAKVQWKVDNALQSGNSQESVTEQDSKDSTYSLSSTLTLSKADYEKHKVYACEVTHQGLSSPVTKSFNRGEC
notes: single-arm (one Fab)
B12: GCH065-G1dh/none-Hi-Kn010G3/L0262-k0 (antibody, human IgG1, kappa)
heavy: not shown
chain: EPKSSDKTHTCPPCPAPELLGGPSVFLFPPKPKDTLMISRTPEVTCVVVDVSHEDPEVKFNWYVDGVEVHNAKTKPREEQYNSTYRVVSVLTVLHQDWLNGKEYKCKVSNKALPAPIEKTISKAKGQPREPQVCTLPPSRDELTKNQVSLWCLVKGFYPSDIAVEWESNGQPENNYKTTPPVLDSDGSFFLYSKLTVDKSRWQQGNVFSCSVMHEALHNRYTQKSLSLSP
light: DIVMTQSPLSLPVTPGEPASISCRSSQPPVHSNRNTYLHWYQQKPGQAPRLLIYKVSNRFSGVPDRFSGSGSGTDFTLKISRVEAEDVGVYYCAQGTQVPYTFGQGTKLEIKRTVAAPSVFIFPPSDEQLKSGTASVVCLLNNFYPREAKVQWKVDNALQSGNSQESVTEQDSKDSTYSLSSTLTLSKADYEKHKVYACEVTHQGLSSPVTKSFNRGEC
notes: single-arm (one Fab)
B13: GCH094-G1dh/none-Hi-Kn010G3/L0270-k0 (antibody, human IgG1, kappa)
heavy: not shown
chain: EPKSSDKTHTCPPCPAPELLGGPSVFLFPPKPKDTLMISRTPEVTCVVVDVSHEDPEVKFNWYVDGVEVHNAKTKPREEQYNSTYRVVSVLTVLHQDWLNGKEYKCKVSNKALPAPIEKTISKAKGQPREPQVCTLPPSRDELTKNQVSLWCLVKGFYPSDIAVEWESNGQPENNYKTTPPVLDSDGSFFLYSKLTVDKSRWQQGNVFSCSVMHEALHNRYTQKSLSLSP
light: DIVMTQSPLSLPVTPGEPASISCRSSQSLVHSNRQTYLHWYQQKPGQAPRLLIYKVSNRFSGVPDRFSGSGSGTDFTLKISRVEAEDVGVYYCGQGTQVPYTFGQGTKLEIKRTVAAPSVFIFPPSDEQLKSGTASVVCLLNNFYPREAKVQWKVDNALQSGNSQESVTEQDSKDSTYSLSSTLTLSKADYEKHKVYACEVTHQGLSSPVTKSFNRGEC
notes: single-arm (one Fab)

Target: T1, soluble human GPC3 (human, UniProt P51654 25-563, limits assumed)
T1 construct: soluble human GPC3 as analyte; also called glypican 3
T1 sequence (P51654 other isoform, or with tags, fused parts or gaps limits assumed, form in doubt): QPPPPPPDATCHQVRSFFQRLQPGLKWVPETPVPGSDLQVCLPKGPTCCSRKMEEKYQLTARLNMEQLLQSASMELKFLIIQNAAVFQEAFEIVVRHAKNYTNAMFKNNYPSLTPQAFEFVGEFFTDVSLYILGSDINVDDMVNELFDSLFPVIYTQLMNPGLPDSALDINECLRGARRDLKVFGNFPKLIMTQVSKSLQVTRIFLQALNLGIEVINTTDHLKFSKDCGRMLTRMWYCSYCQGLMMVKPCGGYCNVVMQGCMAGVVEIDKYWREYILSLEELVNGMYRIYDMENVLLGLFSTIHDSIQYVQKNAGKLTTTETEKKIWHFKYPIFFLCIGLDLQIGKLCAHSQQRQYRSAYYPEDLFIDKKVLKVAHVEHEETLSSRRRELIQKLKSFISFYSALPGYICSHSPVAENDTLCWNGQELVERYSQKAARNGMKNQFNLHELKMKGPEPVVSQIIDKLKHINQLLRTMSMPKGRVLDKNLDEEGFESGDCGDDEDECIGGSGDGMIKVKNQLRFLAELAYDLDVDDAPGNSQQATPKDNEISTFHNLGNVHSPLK
Experiment: SPR (Biacore), soluble human GPC3

Binder	Kd
B1	0.0774 nM
B2	0.393 nM
B3	2.1 nM
B4	0.00412 nM
B5	0.035 nM
B6	0.91 nM
B7	3.88 nM
B8	1.17 nM
B9	2 nM
B10	0.692 nM
B11	4.29 nM
B12	0.0118 nM
B13	3.6 nM
